T1: human IL6R (Accession no. NP_000556) (human, UniProt P08887 20-468)
T1 construct: whole, on cells; Expressed on Flp-In-CHO cells (IL6R+CHO)
T1 sequence (looked up): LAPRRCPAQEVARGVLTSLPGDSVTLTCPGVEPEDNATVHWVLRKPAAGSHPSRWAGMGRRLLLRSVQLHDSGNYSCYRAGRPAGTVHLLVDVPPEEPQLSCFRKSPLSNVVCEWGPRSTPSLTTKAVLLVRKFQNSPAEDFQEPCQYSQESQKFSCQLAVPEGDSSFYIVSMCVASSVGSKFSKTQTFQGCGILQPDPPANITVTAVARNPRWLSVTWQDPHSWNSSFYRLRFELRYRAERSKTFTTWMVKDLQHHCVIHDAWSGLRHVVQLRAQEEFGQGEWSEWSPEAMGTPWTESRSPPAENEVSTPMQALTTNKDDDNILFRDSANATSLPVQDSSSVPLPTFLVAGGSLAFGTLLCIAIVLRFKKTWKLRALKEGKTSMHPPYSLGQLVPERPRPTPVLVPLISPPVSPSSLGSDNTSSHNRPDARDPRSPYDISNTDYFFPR

T2: human ASGPR (ASGPR-H1 and ASGPR-H2 subunits) (human, UniProt P07306 2-291; P07307 2-311)
T2 construct: Plasmids for H1 and H2 transfected in a ratio of 2:1 into HeLa cells; also called Asialoglycoprotein receptor
T2 sequence 1: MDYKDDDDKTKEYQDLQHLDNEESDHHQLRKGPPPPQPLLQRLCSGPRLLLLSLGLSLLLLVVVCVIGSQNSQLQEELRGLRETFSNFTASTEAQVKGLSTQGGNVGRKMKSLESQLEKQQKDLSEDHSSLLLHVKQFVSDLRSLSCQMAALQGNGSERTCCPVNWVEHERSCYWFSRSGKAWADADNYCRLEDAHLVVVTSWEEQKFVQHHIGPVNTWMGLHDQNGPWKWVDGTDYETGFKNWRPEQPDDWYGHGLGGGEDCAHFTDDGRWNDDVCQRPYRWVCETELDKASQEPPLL
T2 sequence 2: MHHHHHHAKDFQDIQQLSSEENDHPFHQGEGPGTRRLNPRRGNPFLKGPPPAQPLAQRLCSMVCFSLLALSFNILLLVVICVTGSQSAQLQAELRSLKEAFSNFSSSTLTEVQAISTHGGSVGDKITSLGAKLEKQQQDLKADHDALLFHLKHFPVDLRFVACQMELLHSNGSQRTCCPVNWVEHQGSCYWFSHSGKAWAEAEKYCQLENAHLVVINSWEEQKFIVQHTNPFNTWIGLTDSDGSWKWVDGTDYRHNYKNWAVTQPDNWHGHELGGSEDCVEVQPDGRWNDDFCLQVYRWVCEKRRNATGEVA

B1: anti-IL6R antibody PF1H-G4T1K439E.Avi/PF1L-KT0 (antibody, human IgG4 S228P, kappa, V domains shown)
VH: QVQLQESGPGLVKPSETLSLTCAVSGYSISDDHAWSWVRQPPGEGLEWIGYISYSGITNYNPSLKGRVTISRDTSKNQFSLKLSSVTAADTAAYYCARVLARITAMDYWGEGTLVTVSS
VL: DIQMTQSPSSLSASVGDSVTITCQASQDISSYLNWYQQKPGKAPELLIYYGSELHSGVPSRFSGSGSGTDFTFTISSLEAEDAATYYCGQGNRLPYTFGQGTKVEIER
B2: anti-ASGPR antibody AGA0008Ha-G4T1K439E.Avi/AGA0008La-kOMC (antibody, human IgG4 S228P, kappa, V domains shown)
VH: QSVEESGGRLVTPGTPLTLTCTVSGFSLSSYAMGWVRQAPGKGLEYIGFINTGGSPYYASWAKGRFTISRTSTTVDLKMTSPTTEDTATYFCARDYDTSSGYYGYFNLWGPGTLVTVSS
VL: AQVLTQTPASVSAAVGGTVTIKCQASENIDSYLAWYQQKPGQPPKLLIYRASTLASGVPSRFKGSGSGTPFTLTISDLECADAATYYCQRYVSLNSGDAFGGGTKVEIKR

Columns and labels:
[1] = biological target: T1, human IL6R (Accession no. NP_000556); assay: flow cytometry on HeLa/BirA cells transfected with human IL6R; antibody at 1 micro M in the sorting step
Protocol: To select cells stably expressing IL6R, antibiotic resistant cells were incubated with 1 micro M of anti-IL6R antibody PF1H-G4T1K439E.Avi/PF1L-KT0 (heavy chain, PF1H-G4T1K439E.Avi (SEQ ID NO: 66); light chain, PF1L-KT0 (SEQ ID NO: 67) in MACS buffer (Auto MACS Rinsing Solution (Miltenyi Biotec, Cat #130-091-222) and MACS BSA Stock Solution (Miltenyi Biotec, Cat #1130-091-376)) for 30 min on ice. After wash in MACS buffer, cells were further incubated with R-phycoerythrin (PE) labelled anti-kappa antibody (Southern Biotech, Cat #2060-09) for 30 min on ice in MACS buffer. After wash in MACS buffer, cells expressing IL6R were sorted by FACSAria IIu sorter (Becton Dickinson). Selected clones were then expanded. Flow cytometry using anti-IL6R antibody PF1H-G4T1K439E.Avi/PF1L-KT0 and R-phycoerythrin (PE) labelled anti-kappa antibody (Southern Biotech, Cat #2060-09) with FACS Verse (Becton Dickinson) confirmed high expression of IL6R. BirA expression was also confirmed by capillary immunoassay using Simple Western Wes (Protein Simple).

[2] = biological target: T2, human ASGPR (ASGPR-H1 and ASGPR-H2 …); assay: flow cytometry on HeLa/ASGPR/BirA cells

Row | Binder | binding result [1] | binding result [2]
1 | B1 | binds | 
2 | B2 |  | binds

From patent US20210292409A1 (Chugai, published 2021)
